Results as given in the supplement of paper PMC9732359.
± gives the uncertainty stated by the source.

Test: protein stability index of a GFP-peptide fusion (yeast GPS) (PSI 1-4); higher = more stable; sorted into four equal gates, so the index is relative within each strain
Procedure, shortened: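 Yeast carrying a pooled library were grown to mid-log phase in leucine-free medium. Each library plasmid expresses Cherry and has a tiled 17-residue yeast protein peptide fused downstream of GFP. Cells were sorted into four equal gates by GFP/Cherry ratio, and plasmids from each gate were PCR-amplified, Illumina-sequenced and assigned to strains by barcode. Summing, across gates, the read frequency times the gate number gave each peptide's protein stability index.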

Sequence | protein stability index (doa10∆) | protein stability index (pdr5∆) | protein stability index (san1∆) | protein stability index (ubr1∆)
TISILAAPSGNYKQLTL [RRP43] | 1.77 ± 0.035 | 1.94 ± 0.032 | 1.92 ± 0.058 | 1.89 ± 0.033
TITNSSSSSDIIVPDLI [YML103C/NUP188] | 2.87 ± 0.081 | 3.07 ± 0.052 | 2.83 ± 0.061 | 3.05 ± 0.056
TIWCVCDSYLDADKELS [BRR2] | 2.39 ± 0.059 | 2.44 ± 0.07 | 2.92 ± 0.057 | 2.75 ± 0.072
TIYYVDSDGTRLKGDIF [PRE2] | 3.24 ± 0.067 | 3.24 ± 0.065 | 2.97 ± 0.096 | 3.16 ± 0.057
TKAQQKTAEQIAAERAA [RPL7B] | 2.81 ± 0.17 |  | 3.07 ± 0.13 | 
TKENLEVSGENVVEADL [QCR2] | 3.33 ± 0.27 | 3.6 ± 0.09 | 3.52 ± 0.1 | 2.8 ± 0.14
TKFSKLIGRPPLLVPGM [FAS1] | 1.16 ± 0.071 | 2 ± 0.064 | 1.91 ± 0.078 | 1.65 ± 0.041
TKHLMPQDLTFNAGSNP [RPB7] |  | 3.62 ± 0.2 | 3.22 ± 0.26 | 2.79 ± 0.24
TKKSKLESTKAETDYVD [DSN1] | 2.58 ± 0.073 | 2.9 ± 0.069 | 2.73 ± 0.087 | 3.03 ± 0.059
TKLYFDVNEKIRFRIER [RPC25] | 2.97 ± 0.11 | 2.92 ± 0.097 | 2.81 ± 0.084 | 2.92 ± 0.17
TKMFEDRREKAERTMSK [SMC2] | 3.4 ± 0.14 | 3.37 ± 0.1 | 3.22 ± 0.086 | 3.54 ± 0.088
TKSSLNDLDYDLIADTI [YML103C/NUP188] | 2.64 ± 0.07 | 2.48 ± 0.057 | 2.27 ± 0.067 | 2.52 ± 0.053
TKTILSGTDGSTIGILL [SRP72] | 3 ± 0.064 | 2.81 ± 0.062 | 3.06 ± 0.084 | 3.01 ± 0.065
TLENTLKAAFVAIGNTY [RPS2] | 1.86 ± 0.16 | 1.9 ± 0.11 | 1.72 ± 0.14 | 1.94 ± 0.091
TLFCCLLRSRLATRRVL [RPO21] | 1.31 ± 0.068 | 1.22 ± 0.06 | 1.15 ± 0.15 | 1.2 ± 0.05
TLKNRGLPLGIAEEKMW [YGR119C/NUP57] | 1.8 ± 0.078 | 1.7 ± 0.078 | 1.44 ± 0.29 | 1.89 ± 0.039
TLSNAERAKNVNGLLQV [GAL11] | 3.22 ± 0.14 | 3.23 ± 0.1 | 3.08 ± 0.26 | 3 ± 0.098
TLSPNVTDSSLLKLLTR [GRR1] | 2.89 ± 0.062 | 2.99 ± 0.07 | 2.83 ± 0.043 | 2.82 ± 0.042
TLTKISMLFKTSQKMTS [MCD1] | 1.92 ± 0.082 | 2.83 ± 0.16 | 2.45 ± 0.13 | 3.53 ± 0.19
TLVNKSTGLKNASDALK [RPS1B] | 2.87 ± 0.11 | 3.2 ± 0.11 | 3.4 ± 0.092 | 3.24 ± 0.075
TMIKKTTLVTRREELQQ [SMC3] | 2.88 ± 0.13 | 2.94 ± 0.11 | 3.1 ± 0.16 | 2.55 ± 0.18
TMMTVEEKPDVTYSDVG [RPT1] | 2.58 ± 0.1 | 2.42 ± 0.068 | 1.83 ± 0.14 | 2.3 ± 0.055
TMRKISSETDDDHSQVI [DSN1] | 2.91 ± 0.048 | 3.24 ± 0.064 | 3.1 ± 0.035 | 3.15 ± 0.055
TMYMEVYTAIYNYCVNK [CDC53] | 1.63 ± 0.047 | 1.55 ± 0.047 | 1.51 ± 0.061 | 1.7 ± 0.031
TNFKEEITDASLNLQYV [YML103C/NUP188] | 3.08 ± 0.12 | 3.06 ± 0.084 | 3.18 ± 0.13 | 3.06 ± 0.087
TNHVLEVFSVLGIEAAR [RPO31] | 2.21 ± 0.19 | 2.4 ± 0.11 | 2.77 ± 0.076 | 3.02 ± 0.24
